The source of these data is US20170342151A1 (Memorial Sloan Kettering, published 2017).

Read-outs that look alike come from different tables or passages of the source.

Assay [1] has as its target T1, anti-763 idiotype antibody MK2-23.
T1 construct: Immobilized on the CM5 chip; also called anti-idiotype MK2-23
The experiment in a line: SPR, Biacore T-100, MK2-23 on CM5 chip, monovalent analyte model. The method, then: (§1) CMS sensor chip (Research grade) and related reagents were purchased from Biacore USA (Piscataway, N.J.). […] The system first run 20× cycles of buffer only to get stable baseline levels. […] Samples (60 μL) were injected over the sensor surface at a flow rate of 30 μL/min over 2 min. Association time was set for one minute; dissociation time was set for from five minutes to 30 minutes. Following completion of the association phase, dissociation was monitored in HBS-E buffer containing 250 mM NaCl at the same flow rate. At the end of each cycle, the surface was regenerated using 50 μL 20 mM NaOH at a flow rate of 50 μL/min over one minute and 100 μL 4M MgCl₂ at a flow rate of 50 μL/min over two minutes.

Assay [2] deals with T2, D2.8.11, a peptide epitope for murine 763 (human).
T2 construct: also called antigen D2.8.11; peptide D2.8.11
T2 chain: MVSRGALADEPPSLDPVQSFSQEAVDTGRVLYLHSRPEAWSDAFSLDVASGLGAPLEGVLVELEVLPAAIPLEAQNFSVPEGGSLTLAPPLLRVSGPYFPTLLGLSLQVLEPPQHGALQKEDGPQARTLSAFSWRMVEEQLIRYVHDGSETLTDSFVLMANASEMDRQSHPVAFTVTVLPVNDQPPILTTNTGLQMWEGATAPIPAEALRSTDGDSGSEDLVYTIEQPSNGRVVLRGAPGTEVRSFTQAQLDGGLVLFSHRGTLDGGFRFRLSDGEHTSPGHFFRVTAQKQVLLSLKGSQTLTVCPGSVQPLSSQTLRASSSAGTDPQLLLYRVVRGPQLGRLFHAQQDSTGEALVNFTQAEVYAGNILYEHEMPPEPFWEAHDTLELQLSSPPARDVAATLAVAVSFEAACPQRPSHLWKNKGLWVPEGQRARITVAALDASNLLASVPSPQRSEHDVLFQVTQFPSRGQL
The experiment in a line: SPR, Biacore T-100. A general note: In SPR one partner is held on a chip, and binding of the other changes the refractive index at the surface.

Assay [3] deals with T2, D2.8.11, a peptide epitope for murine …. Nature of the assay: SPR, Biacore T-100, D2.8.11 on CM5 chip, bivalent analyte model. The method, then: as §1
The target in assay [4] is T1, anti-763 idiotype antibody MK2-23. Nature of the assay: SPR, Biacore T-100, MK2-23 on CM5 chip, monovalent analyte model. The method, then: as §1
The source holds these as a separate data set.

Assay [5] has as its target T3, human chondroitin sulfate proteoglycan 4 (CSPG4) on cells (human, UniProt Q6UVK1 30-2322).
T3 construct: Target on CSPG4-positive M14 cells (FACS, cell ELISA) and in frozen human tissue sections (IHC); also called HMW-MAA; MCSP
Nature of the assay: ELISA on M14 cell-coated plates, HRP goat anti-human secondary. The method, then: Hu763-IgG1 was also subjected to five cycles of a freeze and thaw process. […] Antigen binding was expressed as % of MFI of maximum binding at 5 μg. E, ELISA analysis of hu763-IgG1 and hu763-IgG1n on M14 cells coated plates. Binding was detected with HRP conjugated goat anti-human secondary antibody. Hu763-IgG1n was subjected to five cycles of a freeze and thaw process.
An ELISA method using coated M14 as antigen was also used to assay hu763-IgG1 and hu763-IgG1n binding (FIG. 3E). […] Hu763-IgG1n still bound to M14 cells well after subjected to five cycles of freezing and thawing process.
(In general: ELISA stands for enzyme-linked immunosorbent assay.)

For assay [6], the target named is CD3 antigen (surface plasmon resonance). The experiment in a line: SPR, Biacore, two state reaction model.

T3 sequence (Q6UVK1 30-2322 limits assumed): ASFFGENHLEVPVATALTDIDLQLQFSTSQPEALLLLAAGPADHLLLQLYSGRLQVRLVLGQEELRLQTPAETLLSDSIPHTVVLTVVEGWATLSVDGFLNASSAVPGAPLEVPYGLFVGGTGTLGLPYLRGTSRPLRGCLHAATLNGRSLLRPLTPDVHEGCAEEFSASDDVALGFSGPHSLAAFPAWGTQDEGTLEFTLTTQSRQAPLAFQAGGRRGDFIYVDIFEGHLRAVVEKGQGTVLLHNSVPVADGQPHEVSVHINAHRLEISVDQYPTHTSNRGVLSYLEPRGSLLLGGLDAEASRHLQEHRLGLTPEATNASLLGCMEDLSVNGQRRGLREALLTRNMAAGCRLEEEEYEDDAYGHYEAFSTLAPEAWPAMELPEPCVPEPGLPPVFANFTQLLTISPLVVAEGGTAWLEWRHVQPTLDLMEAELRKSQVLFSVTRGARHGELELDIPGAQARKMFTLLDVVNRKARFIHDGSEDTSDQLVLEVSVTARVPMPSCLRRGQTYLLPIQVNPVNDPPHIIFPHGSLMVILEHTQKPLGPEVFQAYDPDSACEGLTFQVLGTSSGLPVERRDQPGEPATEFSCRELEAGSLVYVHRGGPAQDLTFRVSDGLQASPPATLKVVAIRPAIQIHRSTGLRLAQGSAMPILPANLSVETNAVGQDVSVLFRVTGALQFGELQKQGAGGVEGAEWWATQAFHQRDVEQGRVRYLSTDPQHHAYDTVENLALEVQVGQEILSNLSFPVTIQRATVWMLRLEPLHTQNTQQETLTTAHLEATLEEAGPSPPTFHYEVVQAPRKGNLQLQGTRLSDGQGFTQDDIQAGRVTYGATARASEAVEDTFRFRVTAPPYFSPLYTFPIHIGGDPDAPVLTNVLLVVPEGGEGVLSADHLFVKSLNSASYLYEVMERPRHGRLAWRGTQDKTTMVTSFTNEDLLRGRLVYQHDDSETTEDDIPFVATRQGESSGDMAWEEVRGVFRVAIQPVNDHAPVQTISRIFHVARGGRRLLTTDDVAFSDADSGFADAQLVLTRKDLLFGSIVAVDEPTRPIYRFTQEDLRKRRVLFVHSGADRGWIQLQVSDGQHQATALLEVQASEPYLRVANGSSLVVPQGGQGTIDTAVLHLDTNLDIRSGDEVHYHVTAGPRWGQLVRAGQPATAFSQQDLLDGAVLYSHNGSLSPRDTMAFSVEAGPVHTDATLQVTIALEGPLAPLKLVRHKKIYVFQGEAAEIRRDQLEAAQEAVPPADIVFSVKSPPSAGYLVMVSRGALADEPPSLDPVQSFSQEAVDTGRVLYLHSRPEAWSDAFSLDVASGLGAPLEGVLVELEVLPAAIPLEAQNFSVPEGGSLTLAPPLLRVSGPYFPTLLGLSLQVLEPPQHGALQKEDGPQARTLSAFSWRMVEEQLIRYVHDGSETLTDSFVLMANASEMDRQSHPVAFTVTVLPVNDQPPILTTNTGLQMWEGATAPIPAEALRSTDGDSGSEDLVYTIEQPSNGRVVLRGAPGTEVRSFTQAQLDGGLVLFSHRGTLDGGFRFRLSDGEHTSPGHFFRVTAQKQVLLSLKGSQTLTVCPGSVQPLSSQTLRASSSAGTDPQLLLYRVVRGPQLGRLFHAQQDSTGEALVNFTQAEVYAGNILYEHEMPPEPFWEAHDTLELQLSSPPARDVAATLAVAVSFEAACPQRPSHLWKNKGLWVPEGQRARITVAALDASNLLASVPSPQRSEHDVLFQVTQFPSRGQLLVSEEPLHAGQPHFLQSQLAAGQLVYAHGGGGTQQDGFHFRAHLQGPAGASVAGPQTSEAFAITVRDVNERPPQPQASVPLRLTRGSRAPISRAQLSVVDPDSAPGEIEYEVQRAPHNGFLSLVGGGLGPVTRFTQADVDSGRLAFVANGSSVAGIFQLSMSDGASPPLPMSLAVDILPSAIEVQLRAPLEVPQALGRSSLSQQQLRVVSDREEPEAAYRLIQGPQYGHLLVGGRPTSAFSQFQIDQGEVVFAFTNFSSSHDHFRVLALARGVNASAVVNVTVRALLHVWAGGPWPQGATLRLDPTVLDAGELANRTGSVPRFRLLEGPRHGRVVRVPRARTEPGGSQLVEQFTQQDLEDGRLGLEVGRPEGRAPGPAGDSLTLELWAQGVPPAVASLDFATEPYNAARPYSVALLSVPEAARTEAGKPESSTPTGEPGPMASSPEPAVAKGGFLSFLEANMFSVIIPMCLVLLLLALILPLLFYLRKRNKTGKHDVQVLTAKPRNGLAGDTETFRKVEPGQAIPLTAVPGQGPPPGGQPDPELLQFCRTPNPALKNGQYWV

B1: murine anti-CSPG4 antibody 763.74 (antibody, V domains shown)
VH: QIQLVQSGPELKKPGETVKISCKASGYTFTDYSMHWVKKTPGKGLKWLGWINTATGEPTYADDFKGRFAISLETSARTVYLQINNLRNEDTATYFCFSYYDYWGQGTTLTVS
VL: DIKLSQSPSILSVTPGETVSLSCRASQTIYKNLHWYQQKSHRSPRLLIKYGSDSISGIPSRFTGSGSGTDYTLNINSVKPEDEGIYYCLQGYSTPWTFGGGTKLEIK
notes: also called m763
By koff is commonly meant the first-order rate constant of dissociation. Higher therefore signals fast dissociation. As usually defined, the kon is a measure of how fast the partners come together. Lower therefore signals slower complex formation. As to B1, the Kd in assay [1] was 0.582 nM; in assay [2], 1.3 nM; in assay [3] it was 1.34 nM; in assay [4] it was 2.09 nM. In addition, the results for the off-rate (koff) in assay [1], in assay [3] and in assay [4] were 8.5e-05 s⁻¹, 3.89e-05 s⁻¹ and 0.000163 s⁻¹, respectively. Moreover, the kon in assay [1] was 146000 M⁻¹ s⁻¹; in assay [2], 29600 M⁻¹ s⁻¹; in assay [3], 29000 M⁻¹ s⁻¹; in assay [4], 78200 M⁻¹ s⁻¹.

B2: hu763IgG1n H2-L2, humanized 763 H2 and L2 in IgG1 format with variant glycosylation (antibody)
heavy: not shown
light: EIVLTQSPATLSVSPGETVTLSCRASQTIYKNLHWYQQKSGLSPRLLIKYGSDSISGIPARFSGSGSGTDYTLTINSVEPEDEGIYYCLQGYSTPWTFGQGTKLEIKRTVAAPSVFIFPPSDEQLKSGTASVVCLLNNFYPREAKVQWKVDNALQSGNSQESVTEQDSKDSTYSLSSTLTLSKADYEKHKVYACEVTHQGLSSPVTKSFNRGEC
modifications: variant Fc glycosylation from expression in GnT1-deficient CHO cells (78.3% mannose, 20.5% N-acetyl glucosamine, 1.2% glucose; no fucose)
notes: also called hu763-H2L2-IgG1n
In assay [1], B2 displayed a Kd of 0.449 nM, a koff of 7.54e-05 s⁻¹ and an association rate constant (kon) of 168000 M⁻¹ s⁻¹. The binding result in assay [5] is “binds”. In assay [3], this molecule had a Kd of 1.15 nM, a koff of 3.28e-05 s⁻¹ and a kon of 28500 M⁻¹ s⁻¹.

B3: hu763IgG4 H2-L2, humanized 763 H2 and L2 in IgG4 format (antibody)
heavy: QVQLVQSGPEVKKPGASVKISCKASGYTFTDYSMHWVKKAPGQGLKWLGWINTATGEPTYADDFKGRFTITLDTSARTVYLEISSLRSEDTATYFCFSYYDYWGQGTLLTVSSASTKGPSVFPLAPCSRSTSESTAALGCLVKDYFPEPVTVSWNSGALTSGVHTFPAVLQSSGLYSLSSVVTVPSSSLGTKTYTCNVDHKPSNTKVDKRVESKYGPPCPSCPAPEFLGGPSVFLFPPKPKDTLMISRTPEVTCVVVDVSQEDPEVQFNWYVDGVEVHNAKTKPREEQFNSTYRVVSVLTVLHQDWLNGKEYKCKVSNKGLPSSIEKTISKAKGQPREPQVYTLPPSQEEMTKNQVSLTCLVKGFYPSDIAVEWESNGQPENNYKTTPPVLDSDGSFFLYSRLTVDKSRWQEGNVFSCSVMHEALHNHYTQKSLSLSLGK
light: EIVLTQSPATLSVSPGETVTLSCRASQTIYKNLHWYQQKSGLSPRLLIKYGSDSISGIPARFSGSGSGTDYTLTINSVEPEDEGIYYCLQGYSTPWTFGQGTKLEIKRTVAAPSVFIFPPSDEQLKSGTASVVCLLNNFYPREAKVQWKVDNALQSGNSQESVTEQDSKDSTYSLSSTLTLSKADYEKHKVYACEVTHQGLSSPVTKSFNRGEC
In assay [1], B3 gave a Kd of 0.48 nM, a dissociation rate constant (koff) of 8.01e-05 s⁻¹ and a kon of 167000 M⁻¹ s⁻¹. In assay [3], the Kd was found to be 1.22 nM, the koff stood at 3.5e-05 s⁻¹ and the kon came to 28700 M⁻¹ s⁻¹.

B4: hu763-HC-OKT3, humanized 763 IgG1 with huOKT3 scFv on the C-terminus of the heavy chain (bispecific antibody)
heavy: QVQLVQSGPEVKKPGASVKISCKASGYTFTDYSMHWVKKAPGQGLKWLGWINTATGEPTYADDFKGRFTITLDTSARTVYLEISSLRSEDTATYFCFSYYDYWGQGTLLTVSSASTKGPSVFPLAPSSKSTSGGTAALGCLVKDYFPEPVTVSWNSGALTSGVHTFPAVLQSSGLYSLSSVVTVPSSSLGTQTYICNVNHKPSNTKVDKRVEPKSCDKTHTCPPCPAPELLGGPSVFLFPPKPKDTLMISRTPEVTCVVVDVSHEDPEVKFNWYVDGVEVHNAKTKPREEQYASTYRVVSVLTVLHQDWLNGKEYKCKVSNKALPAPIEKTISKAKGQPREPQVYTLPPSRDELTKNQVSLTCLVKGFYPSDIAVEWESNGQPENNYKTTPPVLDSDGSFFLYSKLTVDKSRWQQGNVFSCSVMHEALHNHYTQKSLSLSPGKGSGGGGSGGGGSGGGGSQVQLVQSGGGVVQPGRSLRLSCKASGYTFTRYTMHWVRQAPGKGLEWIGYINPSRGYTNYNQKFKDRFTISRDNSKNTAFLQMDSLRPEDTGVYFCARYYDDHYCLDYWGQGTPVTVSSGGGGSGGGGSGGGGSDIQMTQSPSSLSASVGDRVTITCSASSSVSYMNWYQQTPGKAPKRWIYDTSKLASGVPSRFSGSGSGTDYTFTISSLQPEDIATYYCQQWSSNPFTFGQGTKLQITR
light: EIVLTQSPATLSVSPGETVTLSCRASQTIYKNLHWYQQKSGLSPRLLIKYGSDSISGIPARFSGSGSGTDYTLTINSVEPEDEGIYYCLQGYSTPWTFGQGTKLEIKRTVAAPSVFIFPPSDEQLKSGTASVVCLLNNFYPREAKVQWKVDNALQSGNSQESVTEQDSKDSTYSLSSTLTLSKADYEKHKVYACEVTHQGLSSPVTKSFNRGEC
notes: IgG-scFv format, aglycosylated Fc (N297A); also called hu763-HC-huOKT3; hu763-BsAb
In assay [6], B4 returned a Kd of 231 nM, a koff of 0.0696 s⁻¹ and a kon of 302000 M⁻¹ s⁻¹.

B5: hu763IgG1 H2-L2, humanized 763 H2 and L2 in IgG1 format (antibody)
heavy: not shown
light: EIVLTQSPATLSVSPGETVTLSCRASQTIYKNLHWYQQKSGLSPRLLIKYGSDSISGIPARFSGSGSGTDYTLTINSVEPEDEGIYYCLQGYSTPWTFGQGTKLEIKRTVAAPSVFIFPPSDEQLKSGTASVVCLLNNFYPREAKVQWKVDNALQSGNSQESVTEQDSKDSTYSLSSTLTLSKADYEKHKVYACEVTHQGLSSPVTKSFNRGEC
notes: also called parental hu763
In assay [3], B5 registered a Kd of 1.29 nM, a koff of 3.81e-05 s⁻¹ and a kon of 29600 M⁻¹ s⁻¹. In assay [4], this molecule came in with a Kd of 1.75 nM, a koff of 0.000181 s⁻¹ and a kon of 103000 M⁻¹ s⁻¹.

B6: ch763IgG1, chimeric 763 HC and LC in IgG1 format (antibody, V domains shown)
VH: QIQLVQSGPELKKPGETVKISCKASGYTFTDYSMHWVKKTPGKGLKWLGWINTATGEPTYADDFKGRFAISLETSARTVYLQINNLRNEDTATYFCFSYYDYWGQGTTLTVSA
VL: DIKLSQSPSILSVTPGETVSLSCRASQTIYKNLHWYQQKSHRSPRLLIKYGSDSISGIPSRFTGSGSGTDYTLNINSVKPEDEGIYYCLQGYSTPWTFGGGTKLEIKR
In the case of B6, in assay [3], the Kd stood at 84 nM, the koff stood at 0.00295 s⁻¹ and the kon was found to be 35100 M⁻¹ s⁻¹. In assay [4], this molecule gave a Kd of 1.89 nM, a koff of 0.000339 s⁻¹ and a kon of 179000 M⁻¹ s⁻¹.
